The chains are these.
B1: I-8-T; numbered along this chain (parent)
chain: EASNCFAIRHFENKFAVETLICFNLFLNSQEKHY

± gives the uncertainty stated by the source.

The data set covers variants of B1. The data set is described as follows: amyloid nucleation score relative to WT ADan (yeast Sup35 reporter selection) (log enrichment difference); higher = more amyloid nucleation. Here is the method:
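Deep mutational scan of the ADan peptide fused to the Sup35 nucleation domain (SupN) in S. cerevisiae [psi-pin-], covering all single amino-acid substitutions and stop truncations (truncations = sequence up to the stop). After 24 h Cu2+ induction, cells were selected on -ADE-URA plates for 7 d at 30 °C. The nucleation score is log enrichment (output/input, deep sequencing) minus that of WT ADan, as the error-weighted mean of 3 biological replicates (DiMSum).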
EASNCFATRHFENKFAVETLICFNLFLNSQEKHY: the amyloid nucleation score is 0.634 ± 0.14.

With EASNCFAPRHFENKFAVETLICFNLFLNSQEKHY, the amyloid nucleation score came out at 0.188 ± 0.15.

Turning to EASNCFARRHFENKFAVETLICFNLFLNSQEKHY, the amyloid nucleation score came out at 0.781 ± 0.11.

As for EASNCFASRHFENKFAVETLICFNLFLNSQEKHY, the amyloid nucleation score was found to be 0.471 ± 0.09.

Regarding EASNCFAQRHFENKFAVETLICFNLFLNSQEKHY, the amyloid nucleation score came to 0.519 ± 0.23.

For EASNCFAVRHFENKFAVETLICFNLFLNSQEKHY, the amyloid nucleation score was determined as 0.0841 ± 0.1.

In the case of EASNCFAWRHFENKFAVETLICFNLFLNSQEKHY, the amyloid nucleation score came to 0.464 ± 0.14.

For EASNCFAYRHFENKFAVETLICFNLFLNSQEKHY, the amyloid nucleation score was determined as 0.183 ± 0.14.

Regarding EASNCFAIRPFENKFAVETLICFNLFLNSQEKHY, the amyloid nucleation score came out at 0.798 ± 0.18.

Consider EASNCFAIRFFENKFAVETLICFNLFLNSQEKHY, for which the amyloid nucleation score was -0.478 ± 0.15.

For the variant EASNCFAIRTFENKFAVETLICFNLFLNSQEKHY, the amyloid nucleation score came to 0.0221 ± 0.14.

Turning to EASNCFAIRKFENKFAVETLICFNLFLNSQEKHY, the amyloid nucleation score was 0.566 ± 0.18.

In the case of EASNCFAIRGFENKFAVETLICFNLFLNSQEKHY, the amyloid nucleation score is 0.122 ± 0.1.

Regarding EASNCFAIRVFENKFAVETLICFNLFLNSQEKHY, the amyloid nucleation score is 0.0906 ± 0.11.

Turning to EASNCFAIRLFENKFAVETLICFNLFLNSQEKHY, the amyloid nucleation score is -0.281 ± 0.1.

As to EASNCFAIRWFENKFAVETLICFNLFLNSQEKHY, the amyloid nucleation score is -0.926 ± 0.16.

For EASNCFAIRDFENKFAVETLICFNLFLNSQEKHY, the amyloid nucleation score was 0.76 ± 0.16.

EASNCFAIRIFENKFAVETLICFNLFLNSQEKHY: the amyloid nucleation score amounted to 0.111 ± 0.16.

For EASNCFAIREFENKFAVETLICFNLFLNSQEKHY, the amyloid nucleation score was 0.551 ± 0.18.

For the variant EASNCFAIRNFENKFAVETLICFNLFLNSQEKHY, the amyloid nucleation score is -0.16 ± 0.17.

Take EASNCFAIRAFENKFAVETLICFNLFLNSQEKHY: the amyloid nucleation score is 0.402 ± 0.14.

EASNCFAIRRFENKFAVETLICFNLFLNSQEKHY: the amyloid nucleation score is 0.227 ± 0.1.

In the case of EASNCFAIRQFENKFAVETLICFNLFLNSQEKHY, the amyloid nucleation score was found to be 0.00592 ± 0.19.

On to EASNCFAIRCFENKFAVETLICFNLFLNSQEKHY, for which the amyloid nucleation score turned out to be 0.429 ± 0.15.

EASNCFAIRSFENKFAVETLICFNLFLNSQEKHY: the amyloid nucleation score is -0.245 ± 0.1.

EASNCFAIRYFENKFAVETLICFNLFLNSQEKHY: the amyloid nucleation score is -0.291 ± 0.15.

Take EASNCFAIRMFENKFAVETLICFNLFLNSQEKHY: the amyloid nucleation score was -0.511 ± 0.18.

Turning to EASNCFAIRHFHNKFAVETLICFNLFLNSQEKHY, the amyloid nucleation score is 0.13 ± 0.16.

On to EASNCFAIRHFFNKFAVETLICFNLFLNSQEKHY, for which the amyloid nucleation score is -2.21 ± 0.2.

As to EASNCFAIRHFVNKFAVETLICFNLFLNSQEKHY, the amyloid nucleation score is -2.02 ± 0.12.

As for EASNCFAIRHFSNKFAVETLICFNLFLNSQEKHY, the amyloid nucleation score was -0.259 ± 0.092.

With EASNCFAIRHFLNKFAVETLICFNLFLNSQEKHY, the amyloid nucleation score was -2.5 ± 0.15.

For the variant EASNCFAIRHFRNKFAVETLICFNLFLNSQEKHY, the amyloid nucleation score is -0.892 ± 0.097.

For EASNCFAIRHFYNKFAVETLICFNLFLNSQEKHY, the amyloid nucleation score was -0.651 ± 0.15.

For EASNCFAIRHFDNKFAVETLICFNLFLNSQEKHY, the amyloid nucleation score amounted to 0.334 ± 0.13.

As to EASNCFAIRHFNNKFAVETLICFNLFLNSQEKHY, the amyloid nucleation score was -0.269 ± 0.14.

Take EASNCFAIRHFPNKFAVETLICFNLFLNSQEKHY: the amyloid nucleation score is 0.357 ± 0.16.

Take EASNCFAIRHFGNKFAVETLICFNLFLNSQEKHY: the amyloid nucleation score is -0.627 ± 0.087.

In the case of EASNCFAIRHFKNKFAVETLICFNLFLNSQEKHY, the amyloid nucleation score was -0.108 ± 0.15.

With EASNCFAIRHFTNKFAVETLICFNLFLNSQEKHY, the amyloid nucleation score is -0.329 ± 0.15.

With EASNCFAIRHFQNKFAVETLICFNLFLNSQEKHY, the amyloid nucleation score was -0.321 ± 0.18.

In the case of EASNCFAIRHFWNKFAVETLICFNLFLNSQEKHY, the amyloid nucleation score was -2.66 ± 0.22.

As to EASNCFAIRHFMNKFAVETLICFNLFLNSQEKHY, the amyloid nucleation score was -1.67 ± 0.21.

Take EASNCFAIRHFCNKFAVETLICFNLFLNSQEKHY: the amyloid nucleation score is -0.751 ± 0.14.

EASNCFAIRHFANKFAVETLICFNLFLNSQEKHY: the amyloid nucleation score is -0.733 ± 0.12.

As to EASNCFAIRHFINKFAVETLICFNLFLNSQEKHY, the amyloid nucleation score is -3.73 ± 0.52.

As to EASNCFAIRHFENKCAVETLICFNLFLNSQEKHY, the amyloid nucleation score is -0.147 ± 0.14.

Regarding EASNCFAIRHFENKGAVETLICFNLFLNSQEKHY, the amyloid nucleation score is 0.818 ± 0.089.

As to EASNCFAIRHFENKQAVETLICFNLFLNSQEKHY, the amyloid nucleation score is -0.502 ± 0.18.

As to EASNCFAIRHFENKLAVETLICFNLFLNSQEKHY, the amyloid nucleation score is -0.25 ± 0.085.

For EASNCFAIRHFENKVAVETLICFNLFLNSQEKHY, the amyloid nucleation score amounted to 0.0927 ± 0.095.

For the variant EASNCFAIRHFENKPAVETLICFNLFLNSQEKHY, the amyloid nucleation score was 0.782 ± 0.18.

Regarding EASNCFAIRHFENKYAVETLICFNLFLNSQEKHY, the amyloid nucleation score came out at 0.0276 ± 0.12.

For the variant EASNCFAIRHFENKSAVETLICFNLFLNSQEKHY, the amyloid nucleation score was -0.453 ± 0.099.

For the variant EASNCFAIRHFENKKAVETLICFNLFLNSQEKHY, the amyloid nucleation score is -1.37 ± 0.17.

For the variant EASNCFAIRHFENKDAVETLICFNLFLNSQEKHY, the amyloid nucleation score was -2.5 ± 0.25.

For EASNCFAIRHFENKMAVETLICFNLFLNSQEKHY, the amyloid nucleation score is 0.405 ± 0.14.

For the variant EASNCFAIRHFENKTAVETLICFNLFLNSQEKHY, the amyloid nucleation score was -0.00209 ± 0.12.

As for EASNCFAIRHFENKIAVETLICFNLFLNSQEKHY, the amyloid nucleation score is 0.203 ± 0.13.

Consider EASNCFAIRHFENKRAVETLICFNLFLNSQEKHY, for which the amyloid nucleation score was -2.18 ± 0.14.

As for EASNCFAIRHFENKEAVETLICFNLFLNSQEKHY, the amyloid nucleation score is -2.18 ± 0.19.

For the variant EASNCFAIRHFENKWAVETLICFNLFLNSQEKHY, the amyloid nucleation score is -1.15 ± 0.19.

Turning to EASNCFAIRHFENKNAVETLICFNLFLNSQEKHY, the amyloid nucleation score was -0.337 ± 0.14.

EASNCFAIRHFENKHAVETLICFNLFLNSQEKHY: the amyloid nucleation score is -2.51 ± 0.26.

EASNCFAIRHFENKAAVETLICFNLFLNSQEKHY: the amyloid nucleation score was determined as 0.534 ± 0.14.

Regarding EASNCFAIRHFEMKFAVETLICFNLFLNSQEKHY, the amyloid nucleation score is -0.696 ± 0.13.

Take EASNCFAIRHFESKFAVETLICFNLFLNSQEKHY: the amyloid nucleation score is -0.991 ± 0.09.

On to EASNCFAIRHFEPKFAVETLICFNLFLNSQEKHY, for which the amyloid nucleation score was -0.534 ± 0.15.

Regarding EASNCFAIRHFECKFAVETLICFNLFLNSQEKHY, the amyloid nucleation score was -0.187 ± 0.12.

Regarding EASNCFAIRHFEQKFAVETLICFNLFLNSQEKHY, the amyloid nucleation score was 0.539 ± 0.16.

Turning to EASNCFAIRHFEEKFAVETLICFNLFLNSQEKHY, the amyloid nucleation score was -0.506 ± 0.14.

These data come from the supplement of paper PMC12067230.
